From US20230364254A1, “METHODS FOR TREATING CANCERS WITH ANTIBODY DRUG CONJUGATES (ADC) THAT BIND TO 191P4D12 PROTEINS” (priority 2020, published 2023)

Biological target: T1, 191P4D12 (Homo sapiens, UniProt Q96NY8)
T1 sequence (Q96NY8 32-510): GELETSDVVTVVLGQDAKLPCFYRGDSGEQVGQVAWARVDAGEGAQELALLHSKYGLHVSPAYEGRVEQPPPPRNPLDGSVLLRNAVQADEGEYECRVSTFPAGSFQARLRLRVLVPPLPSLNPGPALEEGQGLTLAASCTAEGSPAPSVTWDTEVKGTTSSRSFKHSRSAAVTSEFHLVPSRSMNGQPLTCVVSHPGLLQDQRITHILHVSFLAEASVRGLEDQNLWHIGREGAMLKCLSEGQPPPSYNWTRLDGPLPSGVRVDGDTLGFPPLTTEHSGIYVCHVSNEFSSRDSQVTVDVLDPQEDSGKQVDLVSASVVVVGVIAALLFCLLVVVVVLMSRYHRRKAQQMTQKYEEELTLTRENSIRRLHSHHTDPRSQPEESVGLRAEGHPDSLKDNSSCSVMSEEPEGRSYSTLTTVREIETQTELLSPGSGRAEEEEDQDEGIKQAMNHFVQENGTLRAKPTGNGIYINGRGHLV
Assay: Analytical and biological characterization studies: comparability of enfortumab vedotin and AGS-22M6E
Description: As described above and in U.S. Pat. No. 8,637,642, AGS-22M6E is an ADC derived from a murine hybridoma cell line. Enfortumab vedotin is a Chinese hamster ovary (CHO) cell line-derived equivalent of AGS-22M6E ADC and is an exemplary product used for human treatment. Enfortumab vedotin has the same amino acid sequence, linker and cytotoxic drug as AGS-22M6E. The comparability between enfortumab vedotin and AGS-22M6E was confirmed through extensive analytical and biological characterization studies, such as binding affinity to 191P4D12, in vitro cytotoxicity, and in vivo antitumor activity.

## enfortumab vedotin: Nectin-4 directed ADC: fully human anti-nectin-4 IgG1 kappa antibody (AGS-22C3) conjugated to MMAE via protease-cleavable maleimidocaproyl valine-citrulline linker
  comparability between enfortumab vedotin and AGS-22M6E (binding affinity to 191P4D12, in vitro cytotoxicity, in vivo antitumor activity): confirmed
